The experiment addresses T1, STN1-TEN1 complex (human, UniProt Q9H668 1-368; Q86WV5 1-123).
T1 construct: STN1, human, full length (flSTN1); TEN1, human, full length (flTEN1); source: E. coli ScarabXpress T7 lac, co-lysed, purified as a complex (Ni-NTA, amylose, HS and HQ)
T1 sequence (looked up) 1: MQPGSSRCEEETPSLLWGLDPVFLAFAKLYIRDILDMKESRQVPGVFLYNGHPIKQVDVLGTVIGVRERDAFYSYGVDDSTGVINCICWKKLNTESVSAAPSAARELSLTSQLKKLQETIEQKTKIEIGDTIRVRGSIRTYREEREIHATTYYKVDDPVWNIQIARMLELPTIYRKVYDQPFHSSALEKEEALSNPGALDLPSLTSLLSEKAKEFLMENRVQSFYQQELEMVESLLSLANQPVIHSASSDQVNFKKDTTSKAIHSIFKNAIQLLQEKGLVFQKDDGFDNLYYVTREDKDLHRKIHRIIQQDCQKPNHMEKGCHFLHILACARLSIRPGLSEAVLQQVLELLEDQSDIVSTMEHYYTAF
T1 sequence (looked up) 2: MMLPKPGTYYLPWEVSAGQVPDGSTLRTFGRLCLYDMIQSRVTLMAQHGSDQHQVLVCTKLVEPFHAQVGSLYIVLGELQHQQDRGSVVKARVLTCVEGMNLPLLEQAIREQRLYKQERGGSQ
Briefly: pull-down; purified STN1-TEN1 complex incubated with purified CTC1 (1002-end) at 4 °C; complex bound to an amylose column and analysed by SDS-PAGE. The conditions noted are these: both partners purified.

This note sets out measurements from PMC7969954, “Pol α-primase dependent nuclear localization of the mammalian CST complex” (Communications Biology, 2021).

B1: CTC1 (1002-end) (domain or fragment, human, UniProt Q2NKJ3 1002-1217, looked up)
chain: TISIPLPHIYLAELLQGGQSPFQATASCHIVSVFSLQLFWVCAYCTSICRQGKCTRLGSTCPTQTAISQAIIRLLVEDGTAEAVVTCRNHHVAAALGLCPREWASLLDFVQVPGRVVLQFAGPGAQLESSARVDEPMTMFLWTLCTSPSVLRPIVLSFELERKPSKIVPLEPPRLQRFQCGELPFLTHVNPRLRLSCLSIRESEYSSSLGILASSC
notes: CTC1, human, residues 1002-end; also called CTC1 residues 1002-end; source: E. coli ScarabXpress T7 lac, purified (Ni-NTA, HS and HQ)
As for B1, the binding result was “binds”.
